# Experiment: Saturation mutagenesis of SEQ ID NO:109: dicamba decarboxylation activity of point mutants (CO2 released), fold of backbone (Tables 7, 8, Megatable 1)
# Details: decarboxylation activity (CO2 released) of point mutant vs unmutated backbone protein; backbone SEQ ID NO: 109
row,Molecule,Fold Activity [fold]
1,"25 (protein, listed as Acidovorax avenae) MAQGKIGLEEHFAIPETLQDSAGFVPGDYWKELSLRLLDIHERRLREMDENGMEMMILSLNAPAVQAIPDTKKAVEIAVRANDFLAEQVARRPDRFQAFAALPMQDPDLATRELERCMQDLGFRGALVNGFSQVGTPENVVYYDAPQYGDFWAAVERLDAPFYLHPRNPIASWAQIYQGHPWLMGPTWAFAQETAVHALRLMASGLFDRHPGLRIILGHLGEGLPYNMWRVDHRNAWVDMPKGYPAKRKLCDYFHENFYLTTSGNFRTQTLIDALLEVGADRILFSTDWPFENVDHAAHWFDDAAISEADRLKIGRTNALSLFKLPQG",1
2,"18 (protein, listed as Legionella pneumophila) MAIVDFETHFITEACIDYLTQRQEVPKLVPELNGAYTMCFTPDVSLFHTSALMEELLSLNEQRLAIMDQAGVTIQVLSLTTINGIDSCPGDENKSTALAREVNDQLYSAIQKHPERFKGFASISPYDVKEGVKELERAISQLGFVGWLTHSNFGQDNYLDDKIYWPLLEAAESLNIPIYLHPNVPIMREFGKYGFALGGSALGFEFDTALCLMRMILGGVFDAFPKLKIMLGHLGETMPFLMERLDHLYRIPDLKPYRPSIQRIPSEVLRQNVYITTSGRFFVPALRYVLEVMGEDRVLFASDYPMESLLDATRFIQDSDLSNQTKQKIFSINAKNLNLI",1.2
3,"20 (protein, listed as Legionella pneumophila) MAIVDFETHFITEACIDYLTQRQEVPKLVPDLNGAYTMCFTPDVSLFHTSALMEELLSLNEQRLAIMDQAGVTIQVLSLTTINGIDSCPGDENKSTALAREVNDQLYSAIQRHPERFKGFASISPYDVKEGVKELERAISQLGFVGWLTHSNFGQDNYLDDKTYWPLLEAAEGLNIPIYLHPNVPIMREFGKYGFALGGSALGFEFDTALCLMRMILGGVFDAFPKLKIMLGHLGETMPFLMERLDHLYRIPDLKAYRPSIQRIPSEVLRQNVYITTSGRFFVPALRYVLEVMGEDRVLFASDYPMESLLDATRFIQDSDLSNQTKQKIFSINAKNLNLI",1.8
4,"21 (protein, listed as Agrobacterium tumefaciens) MAQGKVALEEHFAIPETLQDSAGFVPGDYWKELQHRLLDIQDTRLKLMDAHGIETMILSLNAPAVQAIPDRKKAIEIARRANDVLAEECARRPDRFLAFAALPLQDPDAATQELQRCVNDLGFVGALVNGFSQEGDGQTPLYYDLPQYRPFWGEVEKLDVPFYLHPRNPLPQDSRIYDGHPWLLGPTWAFAQETAVHALRLMASGLFDAHPRLNIILGHMGEGLPYMMWRIDHRNAWVKLPPRYPAKRRFVDYFNENFHITTSGNFRTQTLIDAILEIGADRILFSTDWPFENIDHASDWFNATTIAEADRVKIGRTNARRLFKLDGR",1.9
5,"24 (protein, Aspergillus niger) MALGKVVLEEAYERPNMKEKSNHEAGLYIAPNDRPRYMRQINDINQERLKLADAHGVGYTIISLTVPGIQGIFDKTEAERVATETNNWAAEQIKNHRDRLGAFACLSMHDPAQAANELRRCVQELGFHGALLCSFQHAGPDGETYLFYDQPKYDVFWKALTELDVPLYIHPAAPTGSILERLYAQRPALIGPPLSFANDVSLHTLGIISNGVFDRFPNLKIIIGHLGEHIPFDFWRIDHWFRDVKKPIADEEGRVMAQKSLYHYFKHNIWLTTSGHFSTPTLKYVVNEIGVDRVLFSVDYPYETTESGCNWWDHDKDAIVEAVGGVDNYYAIGRENAKKLLRLDKFHDSDAR",1.6
6,"17 (protein, Aspergillus niger) MARGKIALEEAFEVKGMDEEIDAQAALYIAPKDVERYKRQIVSITDERLQLSDQNGIGYSILSLTVPGIQGITDKDKAEKRARDVNNYIHDQIKDHRDRLGAFAALSMHDPRQAGHELRRCVKELGFHGALLNDVQHTGEGDDDQPLFYDQPDYDEFWRVAVELDVPVYLHPAAPLRDTLIYKQSYEDRKYLVGPPQSYCNGVALHLMGIIVNGVFDRFPNLKVIVGHMGERIPFDFWRMDHWVKGVTRPLAEKNGDTVCQKEPLYYFKRNIYITTSGHFSTQNLRYLYEWLGDERMMFSVDFPYERMEHGCQWYDDDAEKIKEALGGRDGYLRVGRDNARRLFKLTKFKDCDAV",1.8
7,"27 (protein, listed as Aspergillus oryzae) MALGKIALEEAFALPRFEEKTRWWASLFSTDAETHVKEITDINKIRIEHADKHGVGYQILSYTAPGVQDIWDPVEAQALAVEINDYIAEQVRVNPDRFGAFATLSMHNPKEAADELRRCVEKYGFKGALVNDTQRAGPDGDDMIFYDNADWDIFWQTCTELDVPFYMHPRNPTGTIYEKLWADRKWLVGPPLSFAHGVSLHVLGMVTNGVFDRHPKLQIIMGHLGEHVPFDMWRINHWFEDRKKLLGLAETCKKTIRDYFAENIWITTSGHFSTTTLNFCMAEVGSDRILFSIDYPFETFSDACEWFDNAELNGTDRLKIGRENAKKLFKLDSYKDSSA",1
8,"22 (protein, listed as Staphylococcus epidermidis) MAKSINFEEHYVVDDIQKETMKYMSSDPNGVPMQTMLKGLEQKSGFTNADDITKHDERIKFMDEHDVEMQVLSYGNGAPSNLEGERAIELCQQANDTLAKYVNEHPDRFVGFATLPINEPQAAVEEFKRCIKELGFKGALIMGHPKNGFLDQDQYDDLFATAEALNVPIYLHPSPVQSDVYQAYYKGNYSDVTAATFACFGYGWHVDVGIHAIHLVLSGVFDRHPNLNMIIGHWGEFVPFFLERMDDILFADHLEHPISYYFKNNFYITPSGMLTKPQFDLVKAEVGVDRILYSADYPYVEPDKLGTFLDELDLTEEEKEKISYKNGAKLLGLEK",1.6
9,"19 (protein, listed as Talaromyces marneffei) MATPIITLEEHYISSAIRDASETDHYAVFPSQIISKLNTLSTERLQDLDNGHVSLQVISHGPGAQPPYLCQAANDELASAISANPTRFAGFALLPIAEPQLAVQELERCITQHKFVGALIDNHTNGQFYDDQKFWPVFEKAQELDAPIYVHPSYPDEESGVAAHYRGNYDDRIAAALGAYGWGWHSDTALSILRLFAAGLFDTYPNIKIIIGHMGEMLPFQLERVIGIASRFGRSRGLREVWTQNIWVTTSGMFALAPLACLLQTMPIERVLYSVDYPFSANEKGFAFLEEIKKSGLIKEGEDWERFLYKNAQELLKVNV",1.6
10,"23 (protein, listed as Aplysina aerophoba) MAIDIDARSQPGLETARRAMSRRDFLGGAAAFGITAAATTALPASTAAGEEEDLFLLGLEEHFATAELRRLNGIQFPQGTPRFDINDVGAGRIADMDAAGIDIQVLSALTPGAQNLPGAEGVAYARRLNSWVAHEVIPAYPGRFRAFATLPLSEPQAAADELEYAVRELGFLGCMTYGAVDGKFLDHADFVPVLARAETLDVPIYIHPNWASPQVMDTYYNGLGNEWVSRVLSGAGYGWHQEVALQCLRMIASGVFDRFPRLQIIVGHMGEGLPFFYWRFGDDLARITADTLEKPVQQYFHDNFWITTSAFFRDELLRLVLSVMGEDRVMFAVDYPFVSNKVGADWFRAVDLPRNVKEKIAHKNAERLLKIGPF",1.5
11,"26 (protein, listed as Variovorax paradoxus) MATHMAPMKNKIALEEHFAIDLTIADSQVYARPEVWQGLKSNLLDFEQQRLEKMDEWGTEFSILSLNSPAVQGIPDAKRAIEVAQRANDVLAEQVKRHPTRFGGFAALPMQDPEASARELERCVNQLGFHGFLVNGFSQVGDENIVVYYDDARFNDFWTAAAALKKPFYMHPRDPLLAREPIYDGAHWLTGPTWAFAMETAIHALRLMSSGMFDRHPALQMILGHFGEGIPFNIWRVDHILRKGRRGMPCDKEIGEYLRSNVHITTSGNFRTPTLLSTMLEVGSDRIMYSVDYPFEKHEDAARWFDTCEISENDRQKIGRDNARKLFGLK",1.2

# — US20160040149A1, “Compositions Having Dicamba Decarboxylase Activity and Methods of Use” (priority 2013, published 2016)
